Measured values published in the nanobody polyreactivity screen of Harvey et al. (2022).

experiment: yeast display, Sf9 membrane polyspecificity reagent, FACS + sequencing; frameworks hold sequencing errors
Method in brief: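 Nanobodies came from a synthetic yeast display library in Saccharomyces cerevisiae BJ5465, induced with galactose for 36–48 hours and stained for 1 hour at 4 °C with 10% biotinylated, detergent-solubilized Sf9 membrane reagent. Cells were enriched on streptavidin microbeads and then FACS-sorted, with low and high (top ~1%) gates set on anti-HA fluorescence for expression and streptavidin fluorescence for reagent binding. Each polyreactivity label reflects the gate a clone came from. Genes were amplified by colony PCR, sequenced by MiSeq 2 × 250 and filtered by CDR length.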

Row | Sequence | polyreactivity (PSR sort gate)
1 | QVQLVESGGGLVQAGGSLRLSCAASGSIFGLNGMGWYIQAPGKERELVASISASGGSTYYADSVKGRFTISRDNAKNTVYLQMNSLKPEDTAVYYCAARVVYGAGLSSSGPKQYTRRFYYWGQGTQVTVSS | high polyreactivity
2 | QVQLVESGGGLVQAGGSLRLSCAASGSIFGLYAMGCYRQAPGKERELVAAITWSSGNTYYADSVKGRFTISRDNAKNTVYLQMNSLKPEDTAVYYCAAEQIYFVYWEDDYWGQGTQVTVSS | high polyreactivity
3 | QVQLVESGGGLVQAGGSLRLSCAASGSIFGLYAMGWSRQAPGKERELVASITGGGGTYYADSVKGRFTISRDNAKNTVYLQMNSLKPEDTAVYYCAAALYFGGDSYYYWGQGTQVTVSS | low polyreactivity
4 | QVQLVESGGGLVQAGGSLRLSCAASGSIFGLYAMGWYRQAPGKERELVAAINQSGGSTSYADSVKGRFTISRDTAKNTVYLQMNSLKPEDTAVYYCAVAIVTSGPFPRDYWGQGTQVTVSS | low polyreactivity
5 | QVQLVESGGGLVQAGGSLRLSCAASGSIFGLYAMGWYRQAPGKERELVAAINWNGGDTYYADSVKGRFTISRDYAKNTVYLQMNSLKPEDTAVYYCAAEQYRYGIRRRHYDYWGQGTEVTVSS | low polyreactivity
6 | QVQLVESGGGLVQAGGSLRLSCAASGSIFGLYAMGWYRQAPGKERELVAAITASDGSTYYADSVKGRFTISRDNAKNTVYLQMNSLKPEDTADYYCNADAYSGYFLFDYWGQGTQVTVSS | low polyreactivity
7 | QVQLVESGGGLVQAGGSLRLSCAASGSIFGLYVMGWDRQAPGKERELVATITSGGSTYYADSVKGRFTISRDNAKNTVYLQMNSLKPEDTAVYYCAADPQDAAYLKYLFYDYDYWGQGTQVTVSS | low polyreactivity
8 | QVQLVESGGGLVQAGGSLRLSCAASGSIFGLYVMGWYRQAPGKERELVAAITGRGGSTYYADSVKGRFTISRDNAKNTVYLQMNSLKPEDTAVYYCAALRYTFAGRFDYWGQGTQVTVSS | high polyreactivity
9 | QVQLVESGGGLVQAGGSLRLSCAASGSIFGNYAMGWYRQAPGKEREFVAAITWIGGSSYYADSVKGRFTISRDNAKNTVYLQMHSLKPEDTAVYYCARTSYARYRNGWTYDHWGQGTQVTVSS | low polyreactivity
10 | QVQLVESGGGLVQAGGSLRLSCAASGSIFGNYAMGWYRQAPGKEREFVARISRGARTYYADSVKGRFTISRDNAKNTVYLQMNSLKPEDTAVYYCNARDYSVSYSVRFDYWGQGTQVTVSS | high polyreactivity
11 | QVQLVESGGGLVQAGGSLRLSCAASGSIFGPNAMRWYRQAPGKERELVAAINGGTGTFYADSLKGRFTISRDNAKNTVYLQMNSLKPEDTAVYYCAADYGTHYFVRYYYWGQGTQVTVSS | high polyreactivity
12 | QVQLVESGGGLVQAGGSLRLSCAASGSIFGPYAMGWYRQAPGKERELVATISSGGNTNYADSVKGRFTISRDNAKNTVYLQMNSLKPEDTAVYYCAADYTWSVYWWVDYWGQGTQVTVSS | low polyreactivity
13 | QVQLVESGGGLVQAGGSLRLSCAASGSIFGPYAMGWYRQAPGKERELVATITTNGGSTYYADSVKGRFTISRDNAKNTVYLQMNSLKPEDTAVYYCATQHTDYVGAATTYNYWGQGTQVTVSS | low polyreactivity
14 | QVQLVESGGGLVQAGGSLRLSCAASGSIFGRNAKGSYRQAPGKERELVAAITVSGGRTYYADSVKGRFTISRDNAKNTVYLQMNSLKPEDTAVYYCNKYPVYRAVYGGGYEYWGQGTQVTVSS | high polyreactivity
15 | QVQLVESGGGLVQAGGSLRLSCAASGSIFGRNAMGLYRQAPGKERELVAAITDGGNTNYADSVKGRFTISRDNAKNTVYLQMNSLNPEDTAVYYCAARIPGTYGGRYGYDYWGQGTQVTVSS | low polyreactivity
16 | QVQLVESGGGLVQAGGSLRLSCAASGSIFGRNAMGWYRPAPGKERELVAAISRRGGNTYYADSVKGRFTISRDNAKNTVYLQMNSLKPEDTAVYYCAAEVKTSYSYTHDGYWGQGTQVTVSS | high polyreactivity
17 | QVQLVESGGGLVQAGGSLRLSCAASGSIFGRNAMGWYRQAPGKEREIVAAISQRGGRTYYADSVKGRFTISRDNAKNTVYLQMNRLKPEDTAVYYCAATYTRVPNRFYYWGQGTQVTVSS | high polyreactivity
18 | QVQLVESGGGLVQAGGSLRLSCAASGSIFGRNAMGWYRQAPGKERELVAAISGRASSTFYADSVKGRFTISRDNAKNTVYLQMNSLKPEDTAVYYCAARNSYGGPTYEHYYWGQGTQVTVSS | high polyreactivity
19 | QVQLVESGGGLVQAGGSLRLSCAASGSIFGRYAMGWYRQAPGKERELVAAITYRGGTTYYADSVKGRFTISRDNAKNTVYLQMNSLKPEDTAVYYCAAEGTWYYKYGYFAYYYWGQGTQVTVSS | low polyreactivity
20 | QVQLVESGGGLVQAGGSLRLSCAASGSIFGRYGMGWYRQAPGKERELVAAITSGTRTNYADSVKGRFTISRDNAKTTVYLQMNSLKPEDTAVYYCNALRLRGNYEYGYWGQGTQVTVSS | low polyreactivity

Row | Sequence | polyreactivity (PSR sort gate)
21 | QVQLVESGGGLVQAGGSLRLSCAASGSIFGRYVMGWYRQAPGKERELVAAISTSGDSTYYADSVKGRFTISRDNAKNTVYLQMNSLKPEDTAVYYCNARKRTFPSRSIGGDYWGQGTQVTVSS | high polyreactivity
22 | QVQLVESGGGLVQAGGSLRLSCAASGSIFGSNAMGWYIQAPGKERELVAAITWSDGSTYYADSVKGRFTISRDNAKNTVYLQMNSLKPEDTAVYYCAADSWWGIYYSGYDYWGQGTQVTVSS | low polyreactivity
23 | QVQLVESGGGLVQAGGSLRLSCAASGSIFGSYAMGWYRQAPGKERDLVAAISGSGGRTYYADSVKGRFTISRDNAKNTVYLQMNSLKPEDTAVYYCAAAYPRVTYKYGYYWGQGTQVTVSS | high polyreactivity
24 | QVQLVESGGGLVQAGGSLRLSCAASGSIFGSYAMGWYRQAPGKERELVAAISSSGGSTYYADSVKGRFTISRVNAKNTVYFQMNSLKPEDTAVYYCNKYVRYGDGYWGQGTQVTVSS | high polyreactivity
25 | QVQLVESGGGLVQAGGSLRLSCAASGSIFGSYAMGWYRQAPGKERELVAAISWRGGRTYYADSVKGRFTISRDNAKNTVYLQMNSLKPEDTAVYYCAAERHARSSYEYWGQGTQVTVSS | low polyreactivity
26 | QVQLVESGGGLVQAGGSLRLSCAASGSIFGSYAMGWYRQAPGKERELVAAISYSGGTTYYADSVKGRFTISRDNAKNTVYLQMNSLKPEDTAVYYCNAPVAYQREYDYWGLGTQVTVSS | low polyreactivity
27 | QVQLVESGGGLVQAGGSLRLSCAASGSIFGSYAMGWYRQAPGKERELVAGIRSGGSTYYADSVKGRFTISRDNAKNTVYLQMNSLKPEDTAVYYCAGHEEYWGQGTQVTVSS | low polyreactivity
28 | QVQLVESGGGLVQAGGSLRLSCAASGSIFGSYAMGWYRQAPGKERELVAVITSSGNTKYADSVKGRFTISRDNAKNTVYLQMNSLKPEDTAVYYCAARFITWCSQYSFRSMDYWGQGTQVTVSS | high polyreactivity
29 | QVQLVESGGGLVQAGGSLRLSCAASGSIFGTNAMGWYRQAPGKERELVAAIDGGSTTYYADSVKGRFTISRDNAKNTVYLQMNSLKPEDTAVYYCAADGSRYLNYEGYAGYEYWGQGTQVTVSS | low polyreactivity
30 | QVQLVESGGGLVQAGGSLRLSCAASGSIFGTYAMGGYRQAPGKERELVAAITGNGGRTYYADSVKGRFTISRDNAKNTVYLQMNSLKPEDTAVYYCAKATSRRGFYYWGQGTQVTVSS | high polyreactivity
31 | QVQLVESGGGLVQAGGSLRLSCAASGSIFGTYAMGWDRQARGQERALGAAIRWSSGSTYYADSVNGRFTISRDNATNTESLQMNSLKPADTAVYYCNAEYVYYWLGATFGYWGQGTQVTVSS | high polyreactivity
32 | QVQLVESGGGLVQAGGSLRLSCAASGSIFGTYAMGWYRQAPGKERELVAAITTSAGSTYYADSVKGRFTISRDNAKNTVYLEMNSLKPEDTAVYYCAKYAYTSVHSWYYYWGQGTQVTVSS | high polyreactivity
33 | QVQLVESGGGLVQAGGSLRLSCAASGSIFGVNAMGWYRQAPGKERELVASITGGDSTNYADSEKGRFTISRDNAKNTVYLQMNSLKPEDTAVYYCAKDHYYRYEEGDYWGQGTQVTVSS | low polyreactivity
34 | QVQLVESGGGLVQAGGSLRLSCAASGSIFGVNAMGWYRQAPGKERELVATIRQRGTSTYNADSVKGRFTISRDTAKNTVYLQMNSLKPEDTAVYYCAARGGVLKGYYYWGQGTQVTVSS | high polyreactivity
35 | QVQLVESGGGLVQAGGSLRLSCAASGSIFGVNAMGWYRQAPGKERELVATITWRTGSTYYADSVKGRFTISRDNAKNTVYLQMNSLKPEDTAVYYCAAEDYTEFDYWGQGTQVTVSS | low polyreactivity
36 | QVQLVESGGGLVQAGGSLRLSCAASGSIFGVNDMGWYRQAPGKERELVAGISSSGGSTYDADSVMGRFTISRDNAKNTVYLQMNSLKPEDTAVYYCAARKLYRPRGRRVGYWGQGTQVTVSS | low polyreactivity
37 | QVQLVESGGGLVQAGGSLRLSCAASGSIFGVYAIGWYRQAPGKERELVATISWSAGSTYYADSVKGRFTISRDNAKNTVYLQMNSLKPEDTAVYYCAAGVRWLGLYDLFTFDYWGQGTQVTVSS | low polyreactivity
38 | QVQLVESGGGLVQAGGSLRLSCAASGSIFGVYAMGRYIQAPRKERELVASISRGGSTNYADSVKGRFTISRDNAKNTVYLQMKSLKPEDTAVYYCASDGVYQGWTWLYGLRYNYWGQGTQVTVSS | low polyreactivity
39 | QVQLVESGGGLVQAGGSLRLSCAASGSIFGVYAMGWYRPAPGKERELVAVIRWRGGSTYYADSVKGRFTISRDNAKNTVYLQMNSLKPEDTAVYYCAARRHIVVATYDRRYDYWGQGTQVTVSS | low polyreactivity
40 | QVQLVESGGGLVQAGGSLRLSCAASGSIFGVYAMGWYRQAPGKERELVAAISWSGTSTYYADSVKGRFTISRDNAKNTVYLQMNSLKPEDTAVYYCNADWVLDGYDYDYWGQGTQVTVSS | low polyreactivity
